Measurements as given in the supplement of paper PMC12764529.
± gives the half width of the 95% confidence interval.

Columns and labels:
[1] = folding stability dG unfold from trypsin proteolysis; higher = more stable
Procedure, shortened: (§1)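 Bayesian fitting of sequencing counts gave K50 for each design. Unfolding free energy followed by setting this against a sequence-predicted unfolded-state K50 and a shared folded-state K50, either per protease or with trypsin and chymotrypsin combined. The designs, under 80 residues and lacking cysteine, were digested in a PA-tagged cDNA display format at 11 threefold-diluted protease concentrations and without protease, and only those with AlphaFold2 dimer inter-PAE above 15 were kept.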

[2] = folding stability dG unfold (combined trypsin and chymotrypsin); higher = more stable
Procedure, shortened: as §1

[3] = folding stability dG unfold from chymotrypsin proteolysis; higher = more stable
Procedure, shortened: as §1

Sequence	folding stability dG unfold [1] [kcal/mol]	folding stability dG unfold [2] [kcal/mol]	folding stability dG unfold [3] [kcal/mol]
SAGGSAGGSMKTKTIEIEIDGKKVRITIDSDGNITIEVPSEEVKEALKKLLPPGVKITKIEPVSAGGSAGGS [r12_9_TrROS_Hall]	2.15 ± 0.13	1.94 ± 0.21	1.61 ± 0.1
SAGGSAGGSMKTLTLEGESEEEAIEKVKEYFKKKGINYKLLKIEISEKPNGTKIYTIDIDTKKSAGGSAGGS [r12_924_JUSTAS]	1.19 ± 0.1	2.04 ± 0.2	2.33 ± 0.1
SAGGSAGGSMKVEITKVEPETGPNGRPYYRVEVKVIGEDGSPYTFTFYFEKPSDIENAKISLDSAGGSAGGS [r20_130_TrMRF]	2.67 ± 0.19	3.5 ± 0.21	3.91 ± 0.07
SAGGSAGGSMKVYKLPGGYTVTVEPVDGGTLVTITLPDGSVKTKFVPPDEPVVVDPNGAKITVSAGGSAGGS [r12_281_JUSTAS]	1.85 ± 0.071	2.29 ± 0.077	2.55 ± 0.036
SAGGSAGGSMKYTLLSTRKNPDGTELRLIEVSEDPEKAKEYLESQGAVEIEFKKNIMTVTFKSSAGGSAGGS [r20_222_JUSTAS]	-0.216 ± 0.22	-0.214 ± 0.17	-0.321 ± 0.32
SAGGSAGGSMLTIEKPMPGTTEEEALEYAEELKEKNPNYKIEVEIEKTEEGYLTVKIKLTKKESAGGSAGGS [r12_425_JUSTAS]	1.31 ± 0.12	0.972 ± 0.24	0.879 ± 0.12
SAGGSAGGSMLVEVEYEGGERRTFPLENRSVEEAVEALPEGVTRVRVTVYLGEKPVEFEVERPSAGGSAGGS [r12_767_TrMRF]	0.271 ± 0.077	0.799 ± 0.052	1.07 ± 0.067
SAGGSAGGSMLVLKVEVKIEVEEREVIGPDGKIKKEKKIKIEIKIELFELPPLTEEELKKLKESAGGSAGGS [r12_1060_TrROS_Hall]	2.73 ± 0.27	3.6 ± 0.72	4.14 ± 0.21
SAGGSAGGSMNPEVPYAKVTLELKLPDGTTATLTLEVPLEEIPKVIEELKKKGYEILSIKIEPSAGGSAGGS [r12_986_JUSTAS]	4.17 ± 0.23	5.07 ± 0.27	5.02 ± 0.13
SAGGSAGGSMNVSPEELEALARERIEALLAENPDVPRDDVVLEFEGRSESPGKVITLTLRVRASAGGSAGGS [r12_707_JUSTAS]	0.242 ± 0.14	0.0895 ± 0.21	-0.00174 ± 0.23
SAGGSAGGSMPFIKVKVRFIEPNGIERTFEIELPEDKNLDEAIKLAPLFAKNGLPVEIEEVEGSAGGSAGGS [r12_804_TrMRF]	0.758 ± 0.089	0.466 ± 0.18	0.0494 ± 0.44
SAGGSAGGSMPLKLVELKPLEESTGENGVPTVRVELVLERPGERITVELEVSPEEIEALIKKLLSAGGSAGG [r6_379_JUSTAS]	2.03 ± 0.074	1.56 ± 0.19	1.07 ± 0.2
SAGGSAGGSMPPLAPDETVTQTLPSPDGSEVLVTYTWVPGEGLVETKVTDPATGKTTSTKTPVPSAGGSAGG [r6_440_JUSTAS]	0.0545 ± 0.067	-0.0833 ± 0.16	-0.521 ± 0.31
SAGGSAGGSMPTSSSSSLSSEAEVEALIEELKKKGAKEFTVDPGPGALTLTITYDDSTLTISSSAGGSAGGS [r12_846_JUSTAS]	0.838 ± 0.033	1.12 ± 0.11	1.38 ± 0.057
SAGGSAGGSMPVVVEPTTIGDIEVTRVVLPDGTVVVYTKAPTTLKVTYRPLATGEEEEEVFPELSAGGSAGG [r6_555_JUSTAS]	1.01 ± 0.011	1.01 ± 0.056	0.829 ± 0.11
SAGGSAGGSMRTITYEFPPGTTKEEVIEKVKELAKKEGLPIEKIESITEDPETGTYTVTVVVKSAGGSAGGS [r12_131_JUSTAS]	4.2 ± 0.42	4.59 ± 0.34	4.65 ± 0.14
SAGGSAGGSMRVRFLVTEPGLGPETAALRVERRLLEEYPVRVKGVRVRTRPDGGYLVVVEVEPSAGGSAGGS [r12_781_TrMRF]	0.673 ± 0.076	0.94 ± 0.088	1.03 ± 0.1
